Laboratory results published in the RNAGym collection of RNA variant scans (doi:10.7554/elife.80360).

B1: Hammerhead Ribozyme (parent)
chain: ACCGGAUGUGCUUUCCGGUCUGAUGAGUCCGUGAGGACGAAACAG

Variants of: B1
Test: self-cleavage, relative activity (ratio to wild type); higher = more cleavage; co-transcriptional

Variant	self-cleavage
UCCGGAUGUGCUUUCCGCUCUGAUGAGUCCGUGAGGACGAAACAG [A1U G18C]	0.39
ACCGGAUGUGCUUUCCUGUCUAAUGAGUCCGUGAGGACGAAACAG [G17U G22A]	0.368
ACCGGAUGUGCUUUCCGGUCUGAUGAGGUCGUGAGGACGAAACAG [U28G C29U]	0.77
ACCGGAUGAGCUUUCCGGUCAGAUGAGUCCGUGAGGACGAAACAG [U9A U21A]	0.528
ACCGGUUGUGCUUUCCGGUCUGAUGAGUCCGUGAGGUCGAAACAG [A6U A37U]	0.451
ACCGGAUUUGCUUUCCGGUCUGAUGAGUCCGCGAGGACGAAACAG [G8U U32C]	0.877
ACCGGAUGUGCUUCCCGGUCUGAUGAGUCCGUGAGGACUAAACAG [U14C G39U]	0.294
GCCCGAUGUGCUUUCCGGUCUGAUGAGUCCGUGAGGACGAAACAG [A1G G4C]	0.32
ACCGGAUGUGCUUUCCUGUCUGAAGAGUCCGUGAGGACGAAACAG [G17U U24A]	0.781
CCCGGAUGUGCUUUCCGGGCUGAUGAGUCCGUGAGGACGAAACAG [A1C U19G]	1.12
ACCGGAUGAGCUUUCCGGUCUGAUGAGUCCGUGUGGACGAAACAG [U9A A34U]	0.941
ACCGGAUGUGCAUUCCGGUCUGAUGAGUCCGUGAGGACGAGACAG [U12A A41G]	0.32
ACAGGAUAUGCUUUCCGGUCUGAUGAGUCCGUGAGGACGAAACAG [C3A G8A]	0.629
ACCGGAGGUGCUUUCCGGUCUGAGGAGUCCGUGAGGACGAAACAG [U7G U24G]	1.92
ACCGGAUGUGCCUUCCGGUCUGAUGAGUCCGUGAGGACGAUACAG [U12C A41U]	0.288
ACCGGACGUGCUUUCCGGUCUGAUGAGUCCGUGAGGAGGAAACAG [U7C C38G]	0.533
ACCGGAUGUGCUUUCCGGUCUGAUGAGUCCGUGAGGCCGAAACGG [A37C A44G]	0.77
ACCGGAUGUGCUUUACGGUCUGAUGAGUCCGUGAGGACGAAGCAG [C15A A42G]	0.264
ACCGCAUGUGCUUUCCGGUCUGAUGAGUGCGUGAGGACGAAACAG [G5C C29G]	0.344

Variant	self-cleavage
ACCGGAUGUGCUUUCCGGUCUGAUAAGUCCGUGAGGACGAAACAC [G25A G45C]	0.447
ACCGGAUGUGGUUUCCGGUCUGAUGAGUCCGUGAGGACGAAACGG [C11G A44G]	1.8
ACCGGAUGUGCUUUCCGGUCUGAUGAGUCCGUGAGGACGAAGCAA [A42G G45A]	0.306
ACCGGAUGGGCCUUCCGGUCUGAUGAGUCCGUGAGGACGAAACAG [U9G U12C]	1.57
ACCGGAUGAGCUUUCCGCUCUGAUGAGUCCGUGAGGACGAAACAG [U9A G18C]	0.39
ACCGGAUGCGCUUUCCGGUCUGAUGAGUCCGUGAGGUCGAAACAG [U9C A37U]	0.666
ACCGGAUGUGCUUUCCGGUAUGAUGAGUCCGAGAGGACGAAACAG [C20A U32A]	0.471
ACCGGAUUUGCUUUCCGGUCUGAUGAGUUCGUGAGGACGAAACAG [G8U C29U]	1.01
ACCAGAUGUGCUUUCCGGUCUGAUGAGUCCGUGAGGACGAAAUAG [G4A C43U]	0.271
ACCGGAUGUGCUUUCCGGUCUGAUGCGUCCGUGAGGACGGAACAG [A26C A40G]	0.285
ACCGGAUGUGCUUUCCGGUCUGACGAGUCCGUGAGGGCGAAACAG [U24C A37G]	0.9
ACCGGAUGUGCUUUCCGGUCUAAUGAGUCCGUGGGGACGAAACAG [G22A A34G]	0.365
AGCGGAUGUGCUUUCCGGUCUGAUGAGUCUGUGAGGACGAAACAG [C2G C30U]	0.354
ACCGGAUAUGCUUUCCGGUCUGUUGAGUCCGUGAGGACGAAACAG [G8A A23U]	0.383
ACCGGAUGUGCUUUCCGGUCUGAUGAGUCCCUGAGGACAAAACAG [G31C G39A]	0.355
ACCGGAUGUGUUUUCCGGUCUGAAGAGUCCGUGAGGACGAAACAG [C11U U24A]	1.2
ACCGGAUGCGCUUUCCGGUCUGAUGAGGCCGUGAGGACGAAACAG [U9C U28G]	0.808
ACCGGAUGUGCUUACCGGUCUGAUGAGUCCGUGAAGACGAAACAG [U14A G35A]	0.665
ACGGGAUGUGCUAUCCGGUCUGAUGAGUCCGUGAGGACGAAACAG [C3G U13A]	1.02

Variant	self-cleavage
ACCGGACGUGCUUUCCGGUCUGAUGAGGCCGUGAGGACGAAACAG [U7C U28G]	0.538
ACCGGAUGUGCUUUCCGGUCUGAUGACUCCUUGAGGACGAAACAG [G27C G31U]	0.772
ACCGGAUGUGCUUUCCGGUCUGAUGACUCCCUGAGGACGAAACAG [G27C G31C]	0.666
ACCGGAUGUGCUUUCCAGUCUGAUGAGUCCGUGAGUACGAAACAG [G17A G36U]	0.418
ACCGGAUGUGCUUUCCGGCCUGAUGAGUCCGUGGGGACGAAACAG [U19C A34G]	0.478
ACCGCAUGUGCUUUCCGGUCUGAUGAGUCCGUGAGCACGAAACAG [G5C G36C]	0.357
ACCGGAUGUGCUUUCCGGUCUGAUGGCUCCGUGAGGACGAAACAG [A26G G27C]	0.297
ACCGGAUGUGCUUUCCGGUCCGAUGAGUCCGUGAGGUCGAAACAG [U21C A37U]	0.72
ACCGGAUGUGCUUUUCGGUCUGAUGAGUCCGUGAUGACGAAACAG [C15U G35U]	0.701
CCCGGAUGUGCUUUCCGGUCUGAUGAGUCUGUGAGGACGAAACAG [A1C C30U]	0.364
ACCGGAUGUGCUUUCCGGUCUGUUGAGUCCGUGAGGACGAAACCG [A23U A44C]	0.438
ACCGGAUGUGCUUUCCGGUCUGAAGAGUCCGUGCGGACGAAACAG [U24A A34C]	0.88
UCCGGAUGUGCUUUCCGGUCUGGUGAGUCCGUGAGGACGAAACAG [A1U A23G]	0.383
ACCAGAUGUGCUUUCCGGUCUAAUGAGUCCGUGAGGACGAAACAG [G4A G22A]	0.281
ACCGGAUGUGCUUUCCGGUCUGAUGAGCCCGUAAGGACGAAACAG [U28C G33A]	1.16
ACCGGAUCUGCUUUCCGGUCUGAUGAGUCCGUGAGGGCGAAACAG [G8C A37G]	1.2
ACCGGAUGUCCUUUCCGGUCUGAUGAGUCCGUGUGGACGAAACAG [G10C A34U]	0.934
ACCGGAUGUGCUUUCCGGUCUGAUGAGUCCGUGACGACGAAACUG [G35C A44U]	0.465
ACCGGAAGUGCUUUCCGGUCUGAUGAGUCAGUGAGGACGAAACAG [U7A C30A]	1.09
